Experimental data from article doi:10.1101/2022.04.08.487625.

B1: Dig-RD hybrid (25 bp RNA/DNA) (DNA:RNA)
DNA: GATTCATACCTGTCGTGCCAGCTGC
RNA: GCAGCUGGCACGACAGGUAUGAAUC
B2: unlabeled RD hybrid (25 bp RNA/DNA) (DNA:RNA)
DNA: GATTCATACCTGTCGTGCCAGCTGC
RNA: GCAGCUGGCACGACAGGUAUGAAUC

Columns and labels:
[1] = biological target: T1, Flag-mut-RNase HEC (catalytically dead RNase HI) (E. coli, UniProt P0A7Y4 1-155, D10R;E48R); test: EMSA
T1 sequence: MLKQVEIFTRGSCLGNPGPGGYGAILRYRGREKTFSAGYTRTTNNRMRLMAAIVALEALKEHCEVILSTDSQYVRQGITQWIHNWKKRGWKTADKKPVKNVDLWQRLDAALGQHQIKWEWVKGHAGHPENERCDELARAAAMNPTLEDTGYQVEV

[2] = biological target: T1, Flag-mut-RNase HEC (catalytically dead …); test: competition

Binder	binding result [1]	binding result [2]
B1	binds	–
B2	–	binds
